Patent US20230094463A1, “ANTIBODIES THAT DISRUPT THE INTERACTION OF GAL3 AND INSULIN RECEPTOR OR INTEGRINS AND METHODS OF USE THEREOF” (TrueBinding, Inc., priority 2019, published 2023)

Tests used:
[1] = test system: DSS-induced IBD C57BL/6J mice; test: DSS mouse model of chronic inflammatory bowel disease; type: in vivo; details: 3% DSS mice, 10 mg/kg or 1 mg/kg
Experimental: A mouse model of chronic inflammatory bowel disease was implemented to study the effect of Gal-3 antibodies. […] Mice were allowed to rest for one week before initiating the treatment.
Mice were randomized into the four treatment groups: no dextran sulfate sodium salt (DSS), 3% DSS in water+PBS, 3% DSS+mTB001 (10 mg/kg), 3% DSS+mTB001 (1 mg/kg). DSS water mixture was given for five consecutive days followed by seven days of normal water for a total of three DSS cycles and two normal water cycles. Body weight, stool consistency, gross bleeding score, and Hemoccult score (Fisher, SK-61130) were monitored daily. At necropsy, blood, colon, jejunum, ileum, duodenum, and spleen were preserved and flash frozen. Plasma Inflammatory cytokines were measured using Multi-spot Assay Systems (MSD) Proinflammatory Panel 1 (mouse) kit (MSD, K15048D). RT-qPCR was performed on frozen colon samples. Briefly, the colon tissue was disrupted using Qiazol lysis buffer (Qiagen, 79306) and the Qiagen Tissue Lyser II (Qiagen, 85300). RNA was extracted using RNeasy mini kit (Qiagen, 74104). cDNA was synthesized with iScript Reverse Transcription Supermix (BioRad, 1708841) at BioRad C1000 touch thermal cycler (BioRad, 1851138). […]

[2] = test system: HFD-fed Db/Db (Bks-Db) mice; test: HFD-fed Db/Db mouse model of advanced type II diabetes
[3] = test system: high-fat diet fed diabetic C57BL6J mice; test: High-fat diet fed mouse model of type II diabetes; type: in vivo; details: HFD-fed mice; for liver steatosis (H&E stained liver sections): 10 mg/kg
Source text: To evaluate whether Gal3-INSR blockade by Gal3-targeted antibodies functionally impacted diabetes biology, a mouse model of type II diabetes was employed. Male C57BL6J mice were purchased from Jackson Lab and fed with high fat diet (HFD, 60% kcal from fat, Research Diet, Catalog #12492i) starting from 7-week old for 8 weeks, 10 or 16 weeks. Age-matched male C57BL6J mice fed with standard chow diet were used as control mice. […] Mice were fed with standard chow diet or HFD ad libitum except when fasted as indicated in the experiments. Glucose tolerance test (GTT) and insulin tolerance test (ITT) were done at 15 weeks and 16 weeks old (8 weeks and 9 weeks after HFD), respectively, to confirm the insulin resistant and glucose intolerant phenotype. For GTT, mice were fasted for 6 hours by transferring mice to clean cage with no food or faeces but with drinking water and then injected with 2 g/kg glucose (Sigma) and blood was drawn to measure glucose levels at 0, 15, 30, 60, 90, and 120 minutes after glucose injection. For ITT, mice were fasted for 6 hours, and then injected with 0.75 IU/kg body weight of Humalin-R (Eli Lilly) intraperitoneally. Blood from the tail was measured for glucose content using HemoCue Glucose 201 Analyzer at 0, 15, 30, 45, 60 minutes. Based on area under the curve (AUC) from ITT, HFD fed mice were randomized into two groups: human IgG4 isotype group and IMT001-4 treated group. At 17 weeks of age, mice were given antibody treatments by intraperitoneal injection twice a week for 5 doses before ITT and GTT were done at 19 weeks old and 20 weeks old. Human IgG4 isotype and IMT001-4 were dosed at 10 mg/kg with 100 μl/mouse and BM was dosed at […] with 100 μl/mouse. Treatments continued until the mice were sacked at 21 weeks old. The mice body weight was monitored one week after the mice arrived at the facility. Body weight was measured once a week using a balance. Mouse blood was collected using cardiac puncture. Liver, gastrocnemius muscle, and posterior subcutaneous white adipose fat were collected and weighed.
To further evaluate the ability of IMT001-4 to impact the pathological sequalae of diabetes, liver sections from animals treated as in FIGS. 3-5 were examined for signs of fat accumulation, e.g., steatosis. Briefly, liver specimens were fixed in 4% paraformaldehyde for 24 hours, placed in 70% EtOH for 3 days, embedded into paraffin and 10 μm sections were cut and mounted to glass slides and stained with hematoxylin and eosin and visualized on a Revolve microscope at 40× magnification. Images were evaluated by ImageJ to quantitate the extent of steatosis.
To further characterize the liver disease observed in histological samples, serum markers of liver dysfunction were evaluated in animals treated as above […]. Briefly, mouse plasma samples were obtained from whole blood sample in lithium heparin collection tubes. 100 μl of serum was dispensed into the rotor of a VetScan VS2 Blood Chemistry Analyzer (Abaxis) through the sample port. ALT levels were determined as per the manufacturer's specification. […] Accordingly, the Gal3-targeted Gal3-INSR blocking antibody, IMT001-4, has utility in reducing serum liver enzymes.

[4] = 10 mg/kg i.p. twice a week, vs isotype control

B1: TB001: Gal3-targeted Gal3-INSR blocking anti-Gal3 antibody; IMT001-4 used with human IgG4 isotype control (antibody, V domains shown)
VH: QVQLVQSGSELKKPGASVKVSCKASGYTFTNYGMNWVRQAPGQGLKWMGWINTNTGEPTYVEEFTGRFVFSLETSVSTAYLQISSLKAEDTAVYFCAPYDNFFAYWGQGTTVTVSS
VL: DIVLTQSPLSLPVTPGEPASISCRSSKSLLYKDGKTYLNWFLQKPGQSPQLLIYLMSTHASGVPDRFSGSGSGTDFTLKISRVEAEDVGVYYCQQLVDYPLTFGGGTKLEIK
[1]
  DSS-induced reduction in the colon length: restored
[1]; plasma
  DSS-induced inflammation by circulating levels of IFN-gamma: reduced DSS-induced inflammation
[2]; compared to PBS-treated groups
  change in levels of fasting blood glucose: lack of change
[2]; dosed once weekly for twelve weeks
  survival: significantly prolonged survival
[3]; 10 mg/kg i.p. twice a week, 19 day study
  weight gain: did not gain any appreciable weight
[3]; 10 mg/kg i.p. twice a week
  liver steatosis (H&E stained liver sections): negligible levels of steatosis
[3]; 10 mg/kg i.p. twice a week, listed as IMT001-4 (TB001)
  liver steatosis (H&E stained liver sections): absence thereof
[3]; [4]
  glucose reduction in response to insulin challenge (insulin tolerance test): glucose clearance indistinguishable from non-diabetic mice fed a normal diet
  response to glucose challenge (glucose tolerance test): cleared glucose significantly more rapidly
[3]; relative to HFD-fed isotype-control treated mice
  serum liver enzyme ALT levels: significantly decreased
[3]; relative to isotype-control treated animals
  liver steatosis by image quantification (ImageJ): complete reversion of disease state
